Biological target: T1, recombinant human HER3/Fc chimera (R&D Systems, #348-RB-050) (human, UniProt P21860 20-643)
T1 construct: Bought reagent; Biotinylated for flow cytometry, unlabelled for dot blot, ELISA and SPR; also called biotinylated HER3-Fc; not shown: human IgG Fc-region
Assay: SPR, 2.5 nM HER3-Fc alone injected over immobilised heregulin

B1: heregulin (HRG1-β1, EGF-like domain, R&D Systems) (ligand, human, UniProt Q02297-6 177-241, looked up)
chain: SHLVKCAEKEKTFCVNGGECFMVKDLSNPSRYLCKCPNEFTGDRCQNYVMASFYKHLGIEFMEAE
notes: domain: EGF-like domain; also called human heregulin; HRG1-β, 396-HB
B1: binds.

— patent US20120270801A1 (Affibody, published 2012)
